Here are results for 167 variants from the RNAGym collection of RNA variant scans (doi:10.1073/pnas.2313332121).

The labels stand for the following.
B1: TPR t1 (parent)
chain: GACCAAUCUGCCCUCAGAGCUCGAGAACAUCUUCGGAUGCAGAGGAGGCAGGCUUCGGUGGCGCGAUAGCGCCAACGUCCUCAACCUCCAAUGCAUCCCACCACAUGAUGAUGCCUGAAGAGCCUUGGUUUUUUG

In this data set the parent is B1. The data set can be described thus: polymerase ribozyme fitness, log enrichment relative to wild type (log ratio); higher = more active; in vitro selection for triplet polymerase activity. The method in brief:
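For each subunit of a heterodimeric triplet polymerase ribozyme, a mutant library was built by PCR and transcribed, then taken through a single in vitro selection round in triplicate. Selection involved annealing to a biotinylated primer, the partner subunit and triplets, incubation frozen at −7 °C, gel excision of extended constructs, capture on streptavidin beads and RT-PCR. Genotypes were retained after Illumina sequencing of inputs and outputs only with ≥10 input reads and ≥1 read in each output. Fitness is defined as the logarithm of a genotype's enrichment relative to wild-type enrichment, using inverse-variance-weighted averages across replicates, with the logarithm taken to base 2.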
Consider U7G A74G, for which the “polymerase ribozyme fitness (log ratio)” value was -0.0909.
Next, C8A C28G C64U C102A U109A: -4.53; C8A G36C G60U: -0.605; C8A A41U A84G: -2.05.
Next, C8A C49U A100U G120A: 0.731.
With C8A C12U A43U G51U C56U U81C C85A C97A A111G, the “polymerase ribozyme fitness (log ratio)” value was -6.23.
For the variant C8A A16C G47A C70U G110A U131A, the “polymerase ribozyme fitness (log ratio)” value was -3.91.
Next, C8A G35U G58C: -4.74.
Next, C8A C40A A43G G60C: -3.55; C8A C40A A43G G60A: -3.37.
For U7G C20A G39A C49G A121G the value was -2.45.
As to U7G G10A C15G G17A A43C C53G C97U, the “polymerase ribozyme fitness (log ratio)” value is -4.35.
As for U7G C13G C40U, the “polymerase ribozyme fitness (log ratio)” value turned out to be 0.145.
Next, U7G U116G: -1.53.
Next, C8A G17A C73A: -2.25; C8A C13G G61U A84U: -0.177.
For U7G C72A A105U U125G the value was -2.26; for C8A C40G C88A A111C, -1.02; for U7G C12A U32A C73U G113A G120U, -4.58.
Consider U7G G10U C15A U54A C104A, for which the “polymerase ribozyme fitness (log ratio)” value was -3.26.
Take U7G C115U: the “polymerase ribozyme fitness (log ratio)” value is -1.47.
Next, U7G G113A: -0.761; C8A C20U A105G U112C G113A: -0.707; C8A G36A C79U U96G C102U: -2.91.
For C8A A18G C115A the value was -4.82; for C8A C86U, 0.466; for C8A C86G, -1.3.
For C8A C86A the value was 0.557; for U7G C8U C15U G17A A50G, -3.01.
Consider U7G C31G U38A G69A C80U C101G G120A, for which the “polymerase ribozyme fitness (log ratio)” value was -7.18.
For C8A C97A the value was -4.07; for U7G G117C, -1.81.
Next, U7G G45C C88A C115A: 2.03; C8A A43C A46U C86U U96A: -3.85.
On to C8A G57C C64U C123U U129A U133G, for which the “polymerase ribozyme fitness (log ratio)” value is 1.06.
For C8A G63A C98A the value was -5.9; for U7G G17A G39A U55A G61A C82G C115A U130C, -1.97; for C8A C94A, -0.131.
Consider C8A C12U C86G C104A, for which the “polymerase ribozyme fitness (log ratio)” value is -1.31.
For the variant U7G C11U G69C C88A, the “polymerase ribozyme fitness (log ratio)” value is -1.91.
For C8A G35C G63A C98A the value was -6.69; for C8A C34U C53U C62G U109A, -6.27; for U7G C8A C15U G36A C56G C70G U78C C82G U106A, -4.94.
C8A G71U: the “polymerase ribozyme fitness (log ratio)” value is -0.261.
As for C8A A90U, the “polymerase ribozyme fitness (log ratio)” value was -0.513.
With C8A A24G G113A, the “polymerase ribozyme fitness (log ratio)” value was -3.12.
Next, U7G G52U G57C C102A A111C: -2.69; C8A G47C G48A G58A G60U: -1.54.
Next, U7G G42C G45A G61C: -3.42; C8A C49U C73G: -1.1.
Next, U7G C70U C86U U92A: -3.6.
C8A C104U G122A: the “polymerase ribozyme fitness (log ratio)” value worked out at 0.724.
For U7G G69U C76G A95U the value was -1.74; for U7G G61A, 0.0552; for U7G G42A G71A, -2.58.
For U7G C64U the value was 0.622; for U7G G107U A121U G128C, -5.22.
Next, U7G C31U G60A: -4.97; U7G G17C G44C G77U C94A: -6; C8A C22U G61A U129G: -4.98.
With U7G G19U G42A G61A, the “polymerase ribozyme fitness (log ratio)” value is -2.64.
Next, U7G G10C G45U C62A C115U: -3.58; U7G G45C G135U: -0.606.
Next, C8A C64U C104A G120A: 0.21; C8A A18C C34G A43U: -7.06; C8A G19C C82A: -1.97.
Next, C8A C53A G69U A119G U131A U134G: 1.54.
For the variant U7G C56U, the “polymerase ribozyme fitness (log ratio)” value came out at 0.612.
Next, U7G C123A: 1.97.
On to C8A A27C C28U, for which the “polymerase ribozyme fitness (log ratio)” value was -4.62.
With U7G U21C U59G G63A U116G C124G U131A, the “polymerase ribozyme fitness (log ratio)” value is -5.19.
For C8A C56A C72G the value was -1.07; for U7G C12G C13U A46U, -0.346.
Next, C8A C28G: -2.05; C8A C12U C13G C98U: -1.16; U7G C15A A16G C53A C64U: -1.35.
Turning to C8A A50C U92C, the “polymerase ribozyme fitness (log ratio)” value is -1.6.
Next, U7G G63A C98A: -6.38; U7G G110C: -3.83.
For C8A G44U C123U the value was 0.898.
As for C8A G44C G57C G117C U126A, the “polymerase ribozyme fitness (log ratio)” value was -5.88.
Next, U7G G10A C49U U112G G135U: -0.92; C8A C104A A105C C124G U126G: -3.52; C8A C20A G71U: -2.77.
For U7G A74U A118U the value was 0.595.
In the case of C8A G69U C99A G120A G122A, the “polymerase ribozyme fitness (log ratio)” value is -1.73.
Take U7G G45C G77A C82A C98A: the “polymerase ribozyme fitness (log ratio)” value is -6.73.
Consider C8A A43G C70U, for which the “polymerase ribozyme fitness (log ratio)” value is -2.74.
C8A C13U U55G G93A: the “polymerase ribozyme fitness (log ratio)” value was -0.498.
For U7G C79A C99U the value was -5.33; for C8A C86G G113A, -1.25; for U7G C28U G48A, -1.75.
For C8A A83G C104U U129A the value was -2.16; for C8A C20G G61A, -4.4; for U7G G65U C72U C73U U112G, -6.23.
For C8A A24G C28A A84C A121U the value was -3.25; for C8A C15A A29U G42U C72G C114U, -4.6; for C8A C114G, -2.41.
For the variant C8A A68G C114A, the “polymerase ribozyme fitness (log ratio)” value is -4.66.
Next, C8A G61C G122A: -0.605; C8A A16C G39U C102A: -4.53; U7G C12U C20A: -1.34.
With C8A A18G U32A G61A C123A, the “polymerase ribozyme fitness (log ratio)” value was -2.56.
On to C8A G60A U78A U92C, for which the “polymerase ribozyme fitness (log ratio)” value was -1.3.
For U7G C20U C53U A68C U112A the value was -6.37.
Next, U7G G39A G58A G69C C97U: -1.38; C8A C34A G42U: -4.61; C8A A50C C97G: -4.72.
Next, C8A A41C G44U C62U C99U A111U G127A: -7.45.
Regarding C8A G58A G60A, the “polymerase ribozyme fitness (log ratio)” value was -0.486.
Next, C8A A84U C102A: -1.91; C8A C53U C114A: 0.0648.
Next, C8A G36A G60U C82A G117C U131A G135U: -5.4; C8A C56U G69C U112A G120A: -7.42.
For U7G G44A G63C U92A U125A the value was -4.07; for C8A A37U C124A, 1.28; for C8A G39C C53G G61C, -0.548.
For the variant U7G G36A A50C, the “polymerase ribozyme fitness (log ratio)” value is -0.431.
Next, C8A C13A C49G C124G: 1.1; C8A C15A A41C C49A G58U G63U: -3.45; U7G C70U: -0.201.
Next, U7G C40U G69C C99U: -4.48.
For U7G C28A G57U G110C the value was -1.2; for U7G C12G C49A G69U, 1.21; for C8A A18U G45C A75U U109A, -6.43.
On to U7G C8A G63U G65C, for which the “polymerase ribozyme fitness (log ratio)” value is -6.38.
Next, C8A G44A A105G: -3.51; C8A C12U C40U C86U: -0.152; C8A C13G A46U: -1.07.
As for C8A C53G C70U C97U U112A C124U, the “polymerase ribozyme fitness (log ratio)” value was found to be 0.47.
For C8A C64A the value was -5.69; for C8A G47A C49G C70A U78C, -3.7.
Next, C8A C12G C15U A18U C70U G110U U125G: -5.75; U7G C40G A50U: -0.282; U7G C31U: -3.68.
For C8A C82A A90C the value was -1.03; for C8A G52U G60C A91U U112A A118C U131C, -1.41; for C8A G52C U81A, -2.06.
For the variant U7G G69C A100U, the “polymerase ribozyme fitness (log ratio)” value is -2.07.
For C8A C20U A37G the value was -0.63; for C8A A16G C56A C73A, -0.741.
As for U7G G10C G45A G47A U59G A66C G77A, the “polymerase ribozyme fitness (log ratio)” value is -2.15.
For C8A A41U G57A C104A the value was -5.75; for C8A G69A, -1.52; for U7G C12U A37G A43G G61A A91C, -0.427.
For U7G U133A the value was 0.128; for C8A A119G U126G, -0.311.
Consider C8A A29U, for which the “polymerase ribozyme fitness (log ratio)” value was -1.13.
Next, U7G G10C C72G C82A: -0.707; C8A G45U C56U C73U A84C A95U: -1.85; C8A C72U A84C: 0.272.
Next, U7G G39U C49U: -0.696; C8A G35A C123A: -1.9; U7G C73G C89A C104U A119U: -2.52.
For U7G G48U U59C C86G the value was -1.39.
On to C8A C72G, for which the “polymerase ribozyme fitness (log ratio)” value was found to be 0.254.
Consider C8A C86U G110A G120U, for which the “polymerase ribozyme fitness (log ratio)” value worked out at 0.0948.
For the variant C8A G52A C72G, the “polymerase ribozyme fitness (log ratio)” value is 0.47.
For C8A C13A A27G the value was -4.58; for U7G C12A C15A C49A U112A, -0.0165; for U7G C12A C101G U116C, -2.39.
For U7G C64U C73G C89A C104U A119U the value was -6.4; for U7G G69C, -0.478.
Next, U7G G69A: -2.34; U7G U38G U54C C56U G110A G122U: -3.58; C8A G45A A90U G117A: -1.14.
For C8A G61A C115U, the “polymerase ribozyme fitness (log ratio)” value was -0.118.
